The data set deals with T1, Avi-FtsYNG (UniProt P10121 196-497).
T1 sequence: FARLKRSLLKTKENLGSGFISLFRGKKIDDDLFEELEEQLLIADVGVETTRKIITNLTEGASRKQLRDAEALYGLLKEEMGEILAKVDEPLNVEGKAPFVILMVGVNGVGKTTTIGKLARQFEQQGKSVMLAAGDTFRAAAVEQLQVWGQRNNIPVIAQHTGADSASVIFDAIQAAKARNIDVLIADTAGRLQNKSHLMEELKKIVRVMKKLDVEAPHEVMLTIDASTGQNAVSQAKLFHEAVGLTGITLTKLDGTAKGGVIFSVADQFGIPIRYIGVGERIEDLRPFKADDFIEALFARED
In words: SPR; 10 C; RNA over immobilised protein; curve incomplete, fit fixed with GDP control; figure legend swaps panels with PNAtet; SPR: 20 mM HEPES pH 7.5, 150 mM NaCl, 3 mM MgCl2, 1 mM TCEP, 1% glycerol, 0.005% Tween, 10 C; MST: 50 mM HEPES pH 7.5, 100 mM NaCl, 1.5 mM MgCl2, 10% glycerol. To be noted: protein: recombinant; tags: Avi tag, biotinylated, immobilised on streptavidin; hairpin, 5 bp stem.

As for GCGCCGGAAGGCGC (structured_RNA, first and last two phosphodiester bonds replaced by phosphorothioate) [moRNAtet], the dissociation constant Kd (usually the concentration at which binding is half-saturated) came to 160 ± 20 µM.

For the origin of these results see paper PMC11404819, “Peptide nucleic acids can form hairpins and bind RNA-binding proteins”.
